Like-named read-outs stand apart in the source and are kept apart here.
Tests used:
[1] = molecular target: T1, WRKY48 (Arabidopsis thaliana, UniProt Q9FGZ4 1-399); experiment: EMSA
[2] = molecular target: T2, WRKY28 (Arabidopsis thaliana, UniProt Q8VWJ2 1-318); experiment: EMSA
[3] = molecular target: T3, WRKY8 (Arabidopsis thaliana, UniProt Q9FL26 1-326); experiment: EMSA
[4] = molecular target: T2, WRKY28; experiment: EMSA; remark: listed apart in the source
[5] = molecular target: T3, WRKY8; experiment: EMSA; remark: listed apart in the source
[6] = molecular target: T1, WRKY48; experiment: EMSA; remark: listed apart in the source
[7] = molecular target: His-WRKY48 (recombinant) (Arabidopsis thaliana, UniProt Q9FGZ4 1-399); experiment: pull-down
Chain of His-WRKY48 (recombinant) (Q9FGZ4 whole entry): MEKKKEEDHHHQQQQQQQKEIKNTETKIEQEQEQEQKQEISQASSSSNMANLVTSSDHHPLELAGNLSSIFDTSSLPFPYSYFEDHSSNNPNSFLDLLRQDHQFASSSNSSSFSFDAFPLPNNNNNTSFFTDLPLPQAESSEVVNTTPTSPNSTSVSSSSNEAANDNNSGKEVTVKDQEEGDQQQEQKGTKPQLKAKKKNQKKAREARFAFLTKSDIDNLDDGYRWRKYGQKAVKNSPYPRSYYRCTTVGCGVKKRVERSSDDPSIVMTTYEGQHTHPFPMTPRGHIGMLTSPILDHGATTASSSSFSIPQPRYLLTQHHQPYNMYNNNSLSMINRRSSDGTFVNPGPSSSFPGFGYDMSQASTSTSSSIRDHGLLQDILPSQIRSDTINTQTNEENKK

T2 sequence (Q8VWJ2 whole entry): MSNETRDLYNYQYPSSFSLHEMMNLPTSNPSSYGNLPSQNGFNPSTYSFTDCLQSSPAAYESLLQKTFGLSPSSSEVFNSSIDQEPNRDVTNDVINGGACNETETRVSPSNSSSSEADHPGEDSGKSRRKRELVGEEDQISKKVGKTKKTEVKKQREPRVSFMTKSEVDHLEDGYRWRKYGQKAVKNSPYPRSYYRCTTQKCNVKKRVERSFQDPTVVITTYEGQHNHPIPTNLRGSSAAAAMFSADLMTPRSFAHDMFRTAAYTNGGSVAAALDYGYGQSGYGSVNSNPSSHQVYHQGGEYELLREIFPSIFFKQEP
T3 sequence (Q9FL26 whole entry): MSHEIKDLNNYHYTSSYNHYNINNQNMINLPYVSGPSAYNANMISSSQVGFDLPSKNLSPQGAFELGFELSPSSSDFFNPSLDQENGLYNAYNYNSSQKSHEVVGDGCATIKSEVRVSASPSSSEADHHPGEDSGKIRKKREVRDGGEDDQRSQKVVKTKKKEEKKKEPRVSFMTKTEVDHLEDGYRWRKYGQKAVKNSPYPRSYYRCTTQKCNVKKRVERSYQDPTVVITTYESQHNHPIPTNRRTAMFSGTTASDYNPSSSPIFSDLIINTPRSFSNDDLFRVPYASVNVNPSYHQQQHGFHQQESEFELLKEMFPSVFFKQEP
T1 sequence (Q9FGZ4 whole entry): as the sequence (Q9FGZ4 whole entry) above

B1: CIPK6 promoter P1+P2 (dsDNA)
DNA 1: TAAATCGCATCGTGACCGGTCATAAAAAGACACGTGTCGTCATCGCTATCCAAATAATTGACAAACTCGAAGCCGCCAAGGG
DNA 2: CCCTTGGCGGCTTCGAGTTTGTCAATTATTTGGATAGCGATGACGACACGTGTCTTTTTATGACCGGTCACGATGCGATTTA
B1: binds [1]; no binding [2]; no binding [3].

B2: CIPK6 promoter P1 (TTGACA) (dsDNA)
DNA 1: CATCGCTATCCAAATAATTGACAAACTCGAAGCCGCC
DNA 2: GGCGGCTTCGAGTTTGTCAATTATTTGGATAGCGATG
B2: no binding [4]; no binding [5]; binds [6].

B3: GST-MPK3 (recombinant) (enzyme, Arabidopsis thaliana, UniProt Q39023 1-370, looked up)
chain: MNTGGGQYTDFPAVETHGGQFISYDIFGSLFEITSKYRPPIIPIGRGAYGIVCSVLDTETNELVAMKKIANAFDNHMDAKRTLREIKLLRHLDHENIIAIRDVVPPPLRRQFSDVYISTELMDTDLHQIIRSNQSLSEEHCQYFLYQLLRGLKYIHSANIIHRDLKPSNLLLNANCDLKICDFGLARPTSENDFMTEYVVTRWYRAPELLLNSSDYTAAIDVWSVGCIFMELMNRKPLFPGKDHVHQMRLLTELLGTPTESDLGFTHNEDAKRYIRQLPNFPRQPLAKLFSHVNPMAIDLVDRMLTFDPNRRITVEQALNHQYLAKLHDPNDEPICQKPFSFEFEQQPLDEEQIKEMIYQEAIALNPTYG
B3: binds [7].

B4: CIPK6 promoter P2 (GGTCA) (dsDNA)
DNA 1: GTTTAATTACTATCACACCGGTCACGCTGGTTTACC
DNA 2: GGTAAACCAGCGTGACCGGTGTGATAGTAATTAAAC
B4: no binding [4]; no binding [5].
